Data taken from US20250197488A1 (MABWELL SHANGHAI BIOSCIENCE, published 2025).
Where a chain is given by its changes, count along the chain named.

T1: IL-11 (Cat. 12225-HNCE, Sino Biological Inc.) (UniProt P20809 22-199, limits assumed)
T1 sequence (looked up): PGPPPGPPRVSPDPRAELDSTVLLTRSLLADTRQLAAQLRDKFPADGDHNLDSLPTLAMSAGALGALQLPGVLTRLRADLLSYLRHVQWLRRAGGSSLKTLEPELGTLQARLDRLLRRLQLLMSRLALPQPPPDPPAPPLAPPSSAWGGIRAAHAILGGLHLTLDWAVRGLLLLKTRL

T2: human IL-11 (AAH12506.1, Pro22-Leu199) (human, UniProt P20809 22-199)
T2 construct: The range Pro22-Leu199 counts on AAH12506.1; The Octet runs say only 'human IL-11'; also called hIL-11
T2 chain: T1 sequence (looked up) with H154L

B1: hz8C8-VHm1 + hz8C8-VL (antibody, human IgG1, kappa, V domains shown)
VH: EVQLVESGGGLVQPGGSLRLSCAASGFTFSSFGMHWVRQAPGKGLEWVAYITPGSNTIYYADTVKGRFTISRDNAKNSLYLQMNSLRAEDTAVYYCAREYYSYDEGFAYWGQGTLVTVSS
VL: EIVLTQSPATLSLSPGERATLSCSVSSSISSNYLHWYQQKPGQAPRLLIYRTSNLASGIPARFSGSGSGTDFTLTISSLEPEDFAVYYCQQGVDVPFTFGQGTKLEIKR
notes: human IgG1 constant regions
B2: hz8C8-VHm1 + hz8C8-VLm7-m4 (antibody, human IgG1, kappa, V domains shown)
VH: B1 VH
VL: B1 VL with S27D, S28L, S30P, N32Q, L55R
notes: human IgG1 constant regions
B3: hz8C8-VHm1-m3 + hz8C8-VLm7-m3 (antibody, human IgG1, kappa, V domains shown)
VH: B1 VH with Y101S
VL: B1 VL with S27D, S28L, S30P, N32Q, R51G, T52A
notes: human IgG1 constant regions
B4: hz8C8-VHm1-m1 + hz8C8-VLm7 (antibody, human IgG1, kappa, V domains shown)
VH: B1 VH with F32Y
VL: B1 VL with S27D, S28L, S30P, N32Q
notes: human IgG1 constant regions
B5: hz8C8-VHm1 + hz8C8-VLm4 (antibody, human IgG1, kappa, V domains shown)
VH: B1 VH
VL: B1 VL with S27D, S28L
notes: human IgG1 constant regions
B6: hz8C8-VHm1 + hz8C8-VLm2 (antibody, human IgG1, kappa, V domains shown)
VH: B1 VH
VL: B1 VL with N32K
notes: human IgG1 constant regions
B7: hz8C8-VHm1 + hz8C8-VLm9 (antibody, human IgG1, kappa, V domains shown)
VH: B1 VH
VL: B1 VL with S27D, S28L, S30P, N32Q, H35A
notes: human IgG1 constant regions
B8: hz8C8-VHm1-m3 + hz8C8-VLm7 (antibody, human IgG1, kappa, V domains shown)
VH: B1 VH with Y101S
VL: B1 VL with S27D, S28L, S30P, N32Q
notes: human IgG1 constant regions
B9: hz8C8-VHm1-m3 + hz8C8-VLm7-m2 (antibody, human IgG1, kappa, V domains shown)
VH: B1 VH with Y101S
VL: B1 VL with S27D, S28L, S30P, N32Q, R51D, T52A
notes: human IgG1 constant regions
B10: hz8C8-VHm1-m3 + hz8C8-VLm7-m1 (antibody, human IgG1, kappa, V domains shown)
VH: B1 VH with Y101S
VL: B1 VL with S27D, S28L, S30P, N32Q, T52A
notes: human IgG1 constant regions
B11: hz8C8-VHm1 + hz8C8-VLm7-m1 (antibody, human IgG1, kappa, V domains shown)
VH: B1 VH
VL: B1 VL with S27D, S28L, S30P, N32Q, T52A
notes: human IgG1 constant regions
B12: hz8C8-VHm1 + hz8C8-VLm1 (antibody, human IgG1, kappa, V domains shown)
VH: B1 VH
VL: B1 VL with S30P
notes: human IgG1 constant regions
B13: hz8C8-VHm1 + hz8C8-VLm8 (antibody, human IgG1, kappa, V domains shown)
VH: B1 VH
VL: B1 VL with S27D, S28L, S30P, N32Q, H35S
notes: human IgG1 constant regions
B14: hz8C8-VHm1 + hz8C8-VLm7 (antibody, human IgG1, kappa, V domains shown)
VH: B1 VH
VL: B1 VL with S27D, S28L, S30P, N32Q
notes: human IgG1 constant regions; also called hz8C8m7
B15: hz8C8-VHm1-m3 + hz8C8-VLm7-m4 (antibody, human IgG1, kappa, V domains shown)
VH: B1 VH with Y101S
VL: B1 VL with S27D, S28L, S30P, N32Q, L55R
notes: human IgG1 constant regions
B16: hz8C8-VHm1 + hz8C8-VLm5 (antibody, human IgG1, kappa, V domains shown)
VH: B1 VH
VL: B1 VL with S27E, S28L, I29L, S31T
notes: human IgG1 constant regions
B17: hz8C8-VHm1 + hz8C8-VLm6 (antibody, human IgG1, kappa, V domains shown)
VH: B1 VH
VL: B1 VL with S28L, S30P, N32K
notes: human IgG1 constant regions
B18: hz8C8-VHm1 + hz8C8-VLm7-m2 (antibody, human IgG1, kappa, V domains shown)
VH: B1 VH
VL: B1 VL with S27D, S28L, S30P, N32Q, R51D, T52A
notes: human IgG1 constant regions
B19: hz8C8-VHm1 + hz8C8-VLm3 (antibody, human IgG1, kappa, V domains shown)
VH: B1 VH
VL: B1 VL with S28L
notes: human IgG1 constant regions
B20: hz8C8-VHm1-m2 + hz8C8-VLm7 (antibody, human IgG1, kappa, V domains shown)
VH: B1 VH with Y50S
VL: B1 VL with S27D, S28L, S30P, N32Q
notes: human IgG1 constant regions
B21: hz8C8-VHm1 + hz8C8-VLm7-m3 (antibody, human IgG1, kappa, V domains shown)
VH: B1 VH
VL: B1 VL with S27D, S28L, S30P, N32Q, R51G, T52A
notes: human IgG1 constant regions

These binders were tested against T1, IL-11 (Cat. 12225-HNCE, Sino Biological …) (assay: cell-based or functional assay).

Binder	Blocking activity (IC50), STAT3-luc reporter
B1	2.13 µg/mL
B2	0.021 µg/mL
B3	0.022 µg/mL
B4	0.046 µg/mL
B5	0.098 µg/mL
B6	0.038 µg/mL
B7	0.012 µg/mL
B8	0.053 µg/mL
B9	0.009 µg/mL
B10	0.01 µg/mL
B11	0.068 µg/mL
B12	0.804 µg/mL
B13	0.01 µg/mL
B14	0.017 µg/mL
B15	0.02 µg/mL
B16	0.1 µg/mL
B17	0.076 µg/mL
B18	0.024 µg/mL
B19	0.125 µg/mL
B20	0.052 µg/mL
B21	0.017 µg/mL

What follows are binders tested against T1, IL-11 (Cat. 12225-HNCE, Sino Biological …) (assay: competition ELISA, IL-11/IL-11Rα/GP130 complex).
Description: The activity of the recombinant murine anti-IL-11 antibodies for blocking the formation of IL-11/IL-11Rα/GP130 complex was analyzed via competition ELISA. IL-11Rα-His (NP_004503.1, Met1-Val363, C-terminus-6-His Tag) was firstly added into ELISA plates to be coated overnight. Next day, samples were prepared as follows. […] After co-incubating and washing, an HRP conjugated anti-human Fc secondary antibody was added to develop the color which was then detected.
(§1) Then, light and heavy chain expression vectors for preparing mutant antibodies were constructed according to the method for preparing the recombinant antibodies provided in Example 4, using the mutant sequences shown in Table 3 which accordingly were linked with human IgG1 constant regions (SEQ ID NO. 13, and SEQ ID NO.14). Subsequently, the light chain and the heavy chain were reasonably matched and co-transfected into eukaryotic cells for transient expression, and then recombination protein samples of the mutant antibodies were obtained through affinity purification. The samples obtained were tested for affinity on Fortebio Octet, according to the method for measuring affinity provided in Example 1. Further, using the protocol provided in Example 3, hz8C8 and its affinity matured mutants were analyzed for their activity for blocking the formation of IL-11/IL-11Rα/GP130 complex.

Binder	IC50
B1	2.09 µg/mL
B2	0.69 µg/mL
B3	0.78 µg/mL
B4	0.75 µg/mL
B5	0.846 µg/mL
B6	1.14 µg/mL
B7	0.72 µg/mL
B8	0.83 µg/mL
B9	0.67 µg/mL
B10	0.55 µg/mL
B11	0.58 µg/mL
B12	1.24 µg/mL
B13	0.7 µg/mL
B14	0.85 µg/mL
B15	0.47 µg/mL
B16	0.838 µg/mL
B17	1.01 µg/mL
B18	0.74 µg/mL
B19	0.943 µg/mL
B20	1.68 µg/mL
B21	0.73 µg/mL

Biological target: T2, human IL-11 (AAH12506.1, Pro22-Leu199)
Assay: BLI (Octet), antibody captured, human IL-11 in solution
Description: The affinity of the murine antibodies purified from the hybridoma supernatants was determined using an Octet QKe System instrument from Fortebio Inc. with an anti-mouse IgG Fc Capture biosensor to capture the Fc fragments of the antibodies, for which an anti-IL-11 antibody named “3C6-mFc” recombinantly expressed was used at the same concentration as a positive control. Specifically, a hybridoma supernatant was diluted with HBS-EP+ buffer (GE), and was allowed to pass through the surface of AMC probes (Cat: 18-5088, PALL), and so the antibody in the hybridoma supernatant was captured on the surface of the probes; then, human IL-11 diluted in the HBS-EP+ buffer (300 nM) was used as a mobile phase to react with the antibody captured on the surface of the probes. Both the binding and the dissociating were conducted for 300 seconds. When the experiment was finished, data from which response values of blank controls had been deducted was fitted using a 1:1 Langmuir binding model by software, and then kinetic constants for antigen-antibody binding were calculated. Binding signals were detected on the Octet QKe System instrument with Hy5C2, Hy8C8, Hy16B5, Hy18A10, and Hy18H10.
The affinity of hz18A10 and hz8C8 was determined according to the method provided in Example 1 using AHC bioprobes for capturing human Fc fragment instead, with other conditions unchanged. A recombinantly expressed anti-IL-11 antibody 3C6-hFc was used at the same concentration as a positive control.
as §1, with “1.” for “1. Further, using the protocol provided in Example 3, hz8C8 and its affinity matured mutants were analyzed for their activity for blocking the formation of IL-11/IL-11Rα/GP130 complex.”

Binder	Kd	koff	kon
B1	0.613 nM	0.000472 s⁻¹	770000 M⁻¹ s⁻¹
B2	0.178 nM	0.000178 s⁻¹	1e+06 M⁻¹ s⁻¹
B3	< 0.001 nM	< 1e-07 s⁻¹	972000 M⁻¹ s⁻¹
B4	0.125 nM	0.00013 s⁻¹	1.04e+06 M⁻¹ s⁻¹
B5	0.161 nM	0.000141 s⁻¹	874000 M⁻¹ s⁻¹
B6	0.388 nM	0.000229 s⁻¹	590000 M⁻¹ s⁻¹
B7	0.0354 nM	3.45e-05 s⁻¹	975000 M⁻¹ s⁻¹
B8	0.0987 nM	0.00011 s⁻¹	1.12e+06 M⁻¹ s⁻¹
B9	< 0.001 nM	< 1e-07 s⁻¹	945000 M⁻¹ s⁻¹
B10	0.0609 nM	5.81e-05 s⁻¹	954000 M⁻¹ s⁻¹
B11	0.13 nM	0.000136 s⁻¹	1.05e+06 M⁻¹ s⁻¹
B12	0.178 nM	0.000125 s⁻¹	705000 M⁻¹ s⁻¹
B13	0.0313 nM	2.97e-05 s⁻¹	948000 M⁻¹ s⁻¹
B14	0.00429 nM	3.52e-06 s⁻¹	822000 M⁻¹ s⁻¹
B15	< 0.001 nM	< 1e-07 s⁻¹	901000 M⁻¹ s⁻¹
B16	0.479 nM	0.000406 s⁻¹	848000 M⁻¹ s⁻¹
B17	0.0412 nM	2.23e-05 s⁻¹	543000 M⁻¹ s⁻¹
B18	0.0347 nM	3.7e-05 s⁻¹	1.07e+06 M⁻¹ s⁻¹
B19	0.636 nM	0.000496 s⁻¹	780000 M⁻¹ s⁻¹
B20	3.41 nM	0.00355 s⁻¹	1.04e+06 M⁻¹ s⁻¹
B21	0.0795 nM	8.99e-05 s⁻¹	1.13e+06 M⁻¹ s⁻¹
